Assay results from the supplement of paper PMC12042874.
± gives the uncertainty stated by the source.

Assay: amyloid nucleation score (Sup35N fusion, yeast selection) (log enrichment); library NNK1; higher = more nucleation; inactive = no reads after selection
Summary of the method: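 Growth for 7 days at 30°C on medium lacking adenine and uracil followed a 24-hour induction with 100 μM copper sulfate of psi-negative yeast expressing peptides of 20 random codons fused to Sup35N. Input and output plasmid inserts were sequenced with Illumina, and sequences with under 100 input reads were excluded. Nucleation score is the DiMSum log enrichment of output over input reads, centred on the mode score of non-aggregating sequences.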

| Substance | amyloid nucleation score |
| --- | --- |
| IGLRWYSFLLRMSGLSSTGA | -0.23 ± 0.24 |
| IGMQLMVKTSLRHYGMYHTA | 1.65 ± 0.44 |
| IGPGLSSR | -0.521 ± 0.63 |
| IGSGYW | -0.091 ± 0.52 |
| IGSNK | -1.38 ± 0.86 |
| IGVCILTDRLHD | inactive |
| IGYCKWGSDYGCESAT | 1.07 ± 0.93 |
| IGYCSSGQNDPNIASLYCFH | -1.19 ± 0.81 |
| IHALLRQNMD | -0.599 ± 0.39 |
| IHEMTSWVTCRFCGVFKYIL | 2.03 ± 0.13 |
| IHHKD | -0.616 ± 0.24 |
| IHWNWWIRLCGFPFAFYISG | 0.233 ± 0.32 |
| IICFVVISWTRFLMSQKCFC | -0.143 ± 0.35 |
| IICICLVIISFRFCFSIKFM | -2.57 ± 2.7 |
| IIFGRGFFSHSGVRTNQCYT | -1.43 ± 1 |
| IIFNEIIHMQFDNIGDV | 3.27 ± 0.17 |
| IIIACFVSCNELVGVSVIKT | 0.037 ± 0.25 |
| IILFNRILLV | inactive |
| IIRNVTL | 0.263 ± 0.24 |
| IISISINGSVRWSCTRSGAD | 0.499 ± 0.53 |
| IISRRCKML | 1.37 ± 0.5 |
| IIVFGSLEELVGAGLLGRLR | -0.106 ± 1.7 |

| Substance | amyloid nucleation score |
| --- | --- |
| IKMSSRYFMLGTLLSPGLEV | inactive |
| IKVQASQDP | 9.252 ± 0.05 |
| ILAVLVTYIANTACSWYYVF | 0.052 ± 0.64 |
| ILERSHRVGYCAHLLCISVN | 0.171 ± 0.63 |
| ILFGTAHCIIG | 1.52 ± 0.13 |
| ILGVSMPPFYSV | -0.532 ± 0.84 |
| ILHDNFKSSELFAWSAYCRY | inactive |
| ILIDYRGSEPG | 0.224 ± 1.4 |
| ILKATHGSHDIYPAWNGRIS | 3.2 ± 0.12 |
| ILNYVRPCS | 0.416 ± 0.56 |
| ILPEPGMLFDIILNLHAKKF | 2.65 ± 0.11 |
| ILSGVFLIRIEAKSNK | -0.179 ± 1.2 |
| ILSRCVC | 0.608 ± 0.37 |
| ILVHSMGFLGKRYCGCMWGD | 3.41 ± 0.13 |
| ILVVGWFFHLGCLTMSDVVV | 0.225 ± 1.1 |
| ILYFLPNFHIMLSLI | inactive |
| ILYMLPILRKLVSFEFNYIC | 0.117 ± 0.21 |
| ILYTCSSQSASFTGLWTSGL | 2.03 ± 0.16 |
| IMNMSSNIRK | -0.539 ± 0.34 |
| IMSCDERWN | 0.287 ± 0.23 |
| IMTPIRGNN | 0.209 ± 0.34 |
| IMVANVSPSQKFNG | 0.346 ± 0.4 |

| Substance | amyloid nucleation score |
| --- | --- |
| IMVHWMIYCGRMYLHCSSIV | 0.086 ± 0.97 |
| INAFYVVLIIRYVPSSKLLI | inactive |
| INCQMWYRGPYIIQFLNLGW | 6.846 ± 0.055 |
| INGFYCCRV | 0.787 ± 0.21 |
| INLNRHGSLE | 1.6 ± 0.39 |
| INMYWY | -0.031 ± 0.31 |
| INNIVK | 0.602 ± 0.29 |
| INQLRITWLD | 2.46 ± 0.12 |
| INSNWASLRDRYARIASRSS | -0.372 ± 0.47 |
| IPLAGLFYSFWISLHTRSNT | -0.308 ± 0.52 |
| IPMPLCCVIPPWFTTFFVNQ | 4.81 ± 0.092 |
| IPRYVYIGLTPKAVLKQNLA | -1.04 ± 0.84 |
| IQNDCILVNSVSWYCVSGPP | 5.29 ± 0.064 |
| IQTKGNKDVIGVYITMYTRL | -0.671 ± 0.28 |
| IQYNSKIRVFALDYPIEFPC | 0.083 ± 0.61 |
| IREFRRL | 0.313 ± 0.65 |
| IRMVMGTNKFDHVKSRDN | inactive |
| IRNIRRI | -0.262 ± 0.28 |
| IRPLIFVIGHN | 0.794 ± 0.5 |
| IRTMSGNDKPI | -0.36 ± 0.33 |
| IRWTEL | 0.512 ± 0.24 |
| ISFCGTRGFK | 0.154 ± 0.75 |

| Substance | amyloid nucleation score |
| --- | --- |
| ISGRVGAWSPIVYWPLRRGG | -0.573 ± 0.61 |
| ISGSHFVSLPV | 0.518 ± 0.38 |
| ISGTLGSRVMGLSAWVRVSR | -0.114 ± 0.38 |
| ISIRIEDFLYSQ | 0.237 ± 0.57 |
| ISLDFDNYRVILLKRLVGVM | -0.594 ± 0.33 |
| ISNYNFNRWHAVSNLGRCIS | -0.033 ± 0.73 |
| ISSLTV | -1.33 ± 0.68 |
| ISTRQMFVYLRVHCFIDAVE | 0.043 ± 0.48 |
| ISTSC | 0.778 ± 0.49 |
| ISVHIFKGLYRSKSVAWRNV | -0.069 ± 1.1 |
| ISVLVHMMRKAFVQG | 0.768 ± 0.39 |
| ISWQAVTSRGTCNN | -1.01 ± 0.68 |
| ISYRNLIRFCFSPYAKLWRF | 0.69 ± 0.52 |
| ITEVLKNVKKWFCFIRISVG | 0.113 ± 0.5 |
| ITFERGYCTKNITFATTTCP | 1.23 ± 0.47 |
| ITPGLVAPSPDTKCSACDIL | 0.074 ± 0.34 |
| ITRSWLT | -0.12 ± 0.3 |
| ITSIANFLWIL | 3.03 ± 0.069 |
| ITYKLFVISCNEKRNLICHN | -0.477 ± 0.32 |
| ITYKSFYHIQCFSGTSCKRF | 3.1 ± 0.11 |
| IVENARWKVAAEPRNRRSSV | 0.273 ± 0.58 |
| IVGKQSVLYYDSVFVTWMYK | -0.509 ± 0.3 |
